Key:
[1] = target: T1, TIM-1 (T cell, immunoglobulin domain and mucin domain 1), cell membrane-bound (human, UniProt Q96D42 21-364); assay: FACS on ACHN cells, normalised to isotype control pK16
T1 construct: whole, on cells; also called TIM-1 antigen expressed on ACHN, CAKI-2, CAKI-1 cells; TIM-1 on polarized human CD4+ Th1/Th2 cells
T1 sequence (looked up): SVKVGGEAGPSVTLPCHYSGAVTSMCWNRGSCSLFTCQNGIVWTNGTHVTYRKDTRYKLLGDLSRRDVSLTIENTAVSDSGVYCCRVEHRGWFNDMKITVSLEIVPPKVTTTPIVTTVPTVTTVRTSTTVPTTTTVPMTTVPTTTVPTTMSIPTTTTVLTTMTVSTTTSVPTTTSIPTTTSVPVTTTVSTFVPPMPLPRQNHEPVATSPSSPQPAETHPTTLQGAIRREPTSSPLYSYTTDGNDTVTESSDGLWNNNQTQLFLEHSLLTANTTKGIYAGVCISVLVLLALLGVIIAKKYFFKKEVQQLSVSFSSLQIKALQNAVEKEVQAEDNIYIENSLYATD

[2] = target: T1, TIM-1 (T cell, immunoglobulin domain …); assay: FACS on CAKI-2 cells, normalised to isotype control pK16
[3] = target: T2, TIM-1 antigen, soluble extracellular domain of TIM-1 (CG57008-02) with a V5-HIS tag (human, UniProt Q96D42 21-288); assay: BIAcore 2000, 25 C, mAb captured on goat anti-human surface, TIM-1 antigen injected at 292 nM
T2 construct: also called TIM-1 immunogen; TIM-1 protein
T2 sequence: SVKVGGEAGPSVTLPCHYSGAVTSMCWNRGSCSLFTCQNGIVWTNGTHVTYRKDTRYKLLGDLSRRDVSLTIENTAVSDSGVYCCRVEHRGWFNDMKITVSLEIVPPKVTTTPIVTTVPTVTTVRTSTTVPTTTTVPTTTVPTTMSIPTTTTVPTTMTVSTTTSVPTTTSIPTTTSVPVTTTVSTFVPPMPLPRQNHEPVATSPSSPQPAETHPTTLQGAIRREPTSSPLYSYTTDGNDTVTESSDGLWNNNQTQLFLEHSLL

[4] = target: T3, alanine scan peptide PMPLARQNHE; assay: ELISA on coated synthetic peptide (alanine scan)
T3 construct: Synthetic; third P replaced by A
T3 peptide: PMPLARQNHE

[5] = target: T4, alanine scan peptide PMPLPRQAHE; assay: ELISA on coated synthetic peptide (alanine scan)
T4 construct: Synthetic; N replaced by A
T4 peptide: PMPLPRQAHE

Row | Binder | Geo Mean Ratio (relative to negative control) [1] [ratio] | Geo Mean Ratio (relative to negative control) [2] [ratio] | Kd [3] [nM] | binding result [4] | binding result [5]
1 | anti-TIM-1 monoclonal antibody 2.59 (antibody, V domains shown) VH: QSGPRLVKPSQTLSLTCTVSGGSISSDGYYWSWIRQHPGKGLEWIGYIYYSGSTFYNPSLKSRVAISVDTSKNQFSLKLSSVTAADTAVYYCARESPHSSNWYSGFDCWGQGTLVTVSS VL: TQSPDFQSVTPKEKVTITCRASQSIGSRLHWYQQKPDQSPKLLIKYASQSFSGVPSRFSGSGSGTDFTLTINSLEAEDAATYYCHQSSNLPFTFGPGTKVDIKR | 15.2 | 7.7 | 0.38 | – | –
2 | anti-TIM-1 monoclonal antibody 1.37 (antibody, V domains shown) VH: EVQLVESGGGLVQPGGSLRLSCAASGFTFTNYWMSWVRQAPGKGLEWVANIQQDGSEKYYVDSVRGRFTISRDNAKNSLYLQMNSLRAEDSAVYYCARWDYWGQGTLVTVSS VL: DIVMTQTPLSSTVILGQPASISCRSSQSLVHSDGNTYLNWLQQRPGQPPRLLIYMISNRFSGVPDRFSGSGAGTDFTLKISRVEAEDVGVYYCMQATESPQTFGQGTKVEIKR | – | – | 2.78 | – | –
3 | anti-TIM-1 monoclonal antibody 2.70 (antibody, V domains shown) VH: QVQLVESGGGVVQPGRSLRLSCAASGFIFSRYGMHWVRQAPGKGLKWVAVIWYDGSNKLYADSVKGRFTISRDNSKNTLYLQMNSLRAEDTAVYYCARDYYDNSRHHWGFDYWGQGTLVTVSS VL: DIVMTQTPLSLPVTPGEPASISCRSSRSLLDSDDGNTYLDWYLQKPGQSPQLLIYTLSYRASGVPDRFSGSGSGTDFTLKISRVEAEDVGVYYCMQRVEFPITFGQGTRLEIKR | – | – | 2.71 | – | –
4 | anti-TIM-1 monoclonal antibody 2.70.2 (antibody, human IgG4, kappa, V domains shown, also called mAb 2.70.2; mAb2.70.2) VH: QVQLVESGGGVVQPGRSLRLSCAASGFIFSRYGMHWVRQAPGKGLKWVAVIWYDGSNKLYADSVKGRFTISRDNSKNTLYLQMNSLRAEDTAVYYCARDYYDNSRHHWGFDYWGQGTLVTVSS VL: DIVMTQTPLSLPVTPGEPASISCRSSRSLLDSDDGNTYLDWYLQKPGQSPQLLIYTLSYRASGVPDRFSGSGSGTDFTLKISRVEAEDVGVYYCMQRVEFPITFGQGTRLEIKR | 19.4 | 8.8 | – | no binding | no binding
5 | anti-TIM-1 monoclonal antibody 2.16 (antibody, V domains shown, also called 2.16.1 (subclone)) VH: EQSGGGVVKPGGSLRLSCAASGFTFSNAWMTWVRQAPGKGLEWVGRIKRRTDGGTTDYAAPVKGRFTISRDDSKNTLYLQMNNLKNEDTAVYYCTSVDNDVDYWGQGTLVTVSS VL: not shown | 7.9 | – | 0.79 | – | –
6 | anti-TIM-1 monoclonal antibody 2.76 (antibody, V domains shown) VH: EQSGGGVVQPGRSLRLSCAASGFTFSSYGMYWVRQAPGKGLEWVAVIWYDGSNKYYADSVKGRFTISRDNSKNTLYLQMNSLRAEDTAVYYCARDFYDSSRYHYGMDVWGQGTTVTVSS VL: TQCPLSLPVTPGEPASISCRSSQSLLDSDDGNTYLDWYLQKPGQSPQLLIYTVSYRASGVPDRFSGSGSGTDFTLKISRVEAEDVGVYYCMQRIEFPITFGQGTRLEIKR | – | – | 0.57 | – | –
7 | anti-TIM-1 monoclonal antibody 1.29 (antibody, V domains shown, also called mAb 1.29) VH: QVQLQESGPGLVKPSETLSLTCTVSGGSVSSGGYYWSWIRQPPGKGLEWIGFIYYTGSTNYNPSLKSRVSISVDTSKNQFSLKLSSVTAADAAVYYCARDYDWSFHFDYWGQGTLVTVSS VL: DIQMTQSPSSLSASIGDRVTITCRASQGIRNDLGWYQQKPGKAPKRLIYAASSLQSGVPSRFSGSGSGTEFTLTISSLQPEDFATYYCLQHNSYPLTFGGGTKVEIKR | 17.9 | – | 3.64 | – | –
8 | anti-TIM-1 monoclonal antibody 2.61 (antibody, V domains shown) VH: QVQLVEAGGGVVQPGRSLRLSCAASGFTFRSYGMHWVRQAPGKGLKWVAVIWYDGSNKYYTDSVKGRFTISRDNSKNTLYLQMNSLRAEDTAVYYCVRDYYDNSRHHWGFDYWGQGTLVTVSS VL: DIQMTQSPSSRCASVGDRVTITCRASQGIRNDLAWYQQKPGKAPKRLIYAASSLQSGVPSRFSGSRSGTEFTLTISSLQPEDFAAYYCLQHNSYPPSFGQGTKLEIKR | – | – | 1 | – | –
